# Source: patent publication US10829799 (UNIVERSITY COURT OF THE UNIVERSITY OF DUNDEE, dated 2020)
# Positions count from the first letter of the chain named.
# T1: endogenous UBA1 in HEK293 protein extract (human, UniProt P22314 2-1058, limits assumed)
# T1 construct: In a cell lysate, identified by anti-UBA1 blot and molecular weight
# T1 sequence (looked up): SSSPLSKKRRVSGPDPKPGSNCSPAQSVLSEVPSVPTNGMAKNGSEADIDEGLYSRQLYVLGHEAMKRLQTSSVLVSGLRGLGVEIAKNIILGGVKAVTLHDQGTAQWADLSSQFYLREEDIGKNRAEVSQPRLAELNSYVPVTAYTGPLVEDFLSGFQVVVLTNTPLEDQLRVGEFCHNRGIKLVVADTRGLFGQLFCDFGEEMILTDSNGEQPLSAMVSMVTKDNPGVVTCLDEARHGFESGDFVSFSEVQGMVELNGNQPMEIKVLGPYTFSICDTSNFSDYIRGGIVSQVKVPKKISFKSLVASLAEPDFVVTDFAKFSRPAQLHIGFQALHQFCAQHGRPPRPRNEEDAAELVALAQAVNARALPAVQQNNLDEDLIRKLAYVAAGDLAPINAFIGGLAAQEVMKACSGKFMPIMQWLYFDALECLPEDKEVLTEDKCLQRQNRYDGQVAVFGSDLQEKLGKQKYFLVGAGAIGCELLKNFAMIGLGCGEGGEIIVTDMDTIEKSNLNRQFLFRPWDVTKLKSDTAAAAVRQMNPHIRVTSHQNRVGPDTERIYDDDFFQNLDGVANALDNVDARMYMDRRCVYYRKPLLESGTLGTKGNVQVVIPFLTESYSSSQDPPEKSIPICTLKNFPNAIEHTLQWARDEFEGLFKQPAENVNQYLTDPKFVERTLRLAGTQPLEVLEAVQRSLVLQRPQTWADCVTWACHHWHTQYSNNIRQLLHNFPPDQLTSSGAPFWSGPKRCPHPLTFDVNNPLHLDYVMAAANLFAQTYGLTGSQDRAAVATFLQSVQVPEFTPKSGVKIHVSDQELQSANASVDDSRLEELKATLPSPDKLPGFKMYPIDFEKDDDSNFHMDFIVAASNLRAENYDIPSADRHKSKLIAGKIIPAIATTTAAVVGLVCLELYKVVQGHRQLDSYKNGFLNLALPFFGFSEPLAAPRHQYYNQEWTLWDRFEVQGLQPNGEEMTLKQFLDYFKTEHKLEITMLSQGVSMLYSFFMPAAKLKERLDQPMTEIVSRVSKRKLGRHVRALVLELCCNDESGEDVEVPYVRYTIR
# T2: UBA7 (ISG15 E1; His-tagged human UBA7) (human, UniProt P41226 1-1012)
# T2 construct: not shown: N-terminal 6xHis tag of the pFastBacHTB vector
# T2 sequence (looked up): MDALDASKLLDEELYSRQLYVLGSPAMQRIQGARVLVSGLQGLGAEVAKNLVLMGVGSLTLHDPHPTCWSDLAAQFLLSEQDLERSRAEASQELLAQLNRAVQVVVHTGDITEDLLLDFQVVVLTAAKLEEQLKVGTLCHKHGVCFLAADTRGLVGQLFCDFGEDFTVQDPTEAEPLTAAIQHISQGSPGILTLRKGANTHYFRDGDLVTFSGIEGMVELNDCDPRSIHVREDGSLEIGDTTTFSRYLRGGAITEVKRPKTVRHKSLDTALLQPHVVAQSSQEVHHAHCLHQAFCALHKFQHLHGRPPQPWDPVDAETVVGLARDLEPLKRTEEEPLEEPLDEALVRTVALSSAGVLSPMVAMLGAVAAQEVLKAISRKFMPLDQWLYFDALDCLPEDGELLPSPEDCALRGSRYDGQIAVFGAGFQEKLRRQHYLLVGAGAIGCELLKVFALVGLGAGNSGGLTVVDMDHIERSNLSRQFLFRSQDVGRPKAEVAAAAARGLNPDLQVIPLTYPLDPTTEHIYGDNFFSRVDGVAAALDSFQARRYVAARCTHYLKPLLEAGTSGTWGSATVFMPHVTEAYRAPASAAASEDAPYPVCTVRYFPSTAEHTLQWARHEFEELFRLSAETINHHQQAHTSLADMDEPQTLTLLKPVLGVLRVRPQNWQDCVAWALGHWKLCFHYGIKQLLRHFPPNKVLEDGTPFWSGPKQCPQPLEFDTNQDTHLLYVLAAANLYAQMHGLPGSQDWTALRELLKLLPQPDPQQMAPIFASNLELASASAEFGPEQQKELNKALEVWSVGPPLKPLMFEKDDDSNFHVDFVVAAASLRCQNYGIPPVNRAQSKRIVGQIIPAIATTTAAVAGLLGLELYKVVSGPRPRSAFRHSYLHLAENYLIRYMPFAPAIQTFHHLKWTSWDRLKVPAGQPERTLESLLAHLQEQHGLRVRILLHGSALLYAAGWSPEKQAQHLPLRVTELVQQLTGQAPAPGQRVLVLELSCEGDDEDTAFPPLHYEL
# T3: human Ub E1 activating enzyme UBA1 (recombinant, wild type) (human, UniProt P22314 1-1058)
# T3 construct: Catalytic cysteine C632
# T3 sequence (looked up): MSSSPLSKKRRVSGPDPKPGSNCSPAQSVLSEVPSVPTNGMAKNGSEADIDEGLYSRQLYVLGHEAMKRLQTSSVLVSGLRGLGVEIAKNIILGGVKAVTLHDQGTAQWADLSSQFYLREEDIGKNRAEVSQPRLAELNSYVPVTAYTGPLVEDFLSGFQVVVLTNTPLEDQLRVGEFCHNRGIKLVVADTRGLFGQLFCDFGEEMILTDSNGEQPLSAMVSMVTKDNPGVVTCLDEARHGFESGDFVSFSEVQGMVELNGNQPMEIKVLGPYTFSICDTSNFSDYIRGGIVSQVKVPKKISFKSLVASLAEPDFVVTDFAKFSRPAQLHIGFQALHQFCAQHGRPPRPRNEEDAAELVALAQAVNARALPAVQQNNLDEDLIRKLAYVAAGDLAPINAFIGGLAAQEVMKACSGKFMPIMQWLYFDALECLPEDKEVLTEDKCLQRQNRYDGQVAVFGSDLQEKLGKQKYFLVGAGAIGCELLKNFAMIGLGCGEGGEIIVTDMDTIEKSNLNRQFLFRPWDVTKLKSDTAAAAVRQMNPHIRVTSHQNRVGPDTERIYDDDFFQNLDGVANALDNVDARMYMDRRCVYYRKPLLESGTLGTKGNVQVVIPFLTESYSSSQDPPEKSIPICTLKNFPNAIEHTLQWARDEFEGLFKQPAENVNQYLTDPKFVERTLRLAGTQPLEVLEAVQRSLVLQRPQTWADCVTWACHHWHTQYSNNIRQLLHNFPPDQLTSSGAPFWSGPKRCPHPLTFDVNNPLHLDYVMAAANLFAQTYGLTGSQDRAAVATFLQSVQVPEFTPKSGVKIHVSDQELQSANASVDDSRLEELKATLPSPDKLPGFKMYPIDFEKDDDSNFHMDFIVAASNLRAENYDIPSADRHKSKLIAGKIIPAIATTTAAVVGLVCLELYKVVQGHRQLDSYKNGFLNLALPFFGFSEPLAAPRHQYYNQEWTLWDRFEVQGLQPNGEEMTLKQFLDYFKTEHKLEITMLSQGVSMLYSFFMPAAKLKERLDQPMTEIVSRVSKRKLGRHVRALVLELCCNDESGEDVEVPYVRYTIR
# B1: UBE2H thioacrylonitrile probe (enzyme)
# chain: MGSSHHHHHHSSGLEVLFQGPGSMSSPSPGKRRMDTDVVKLIESKHEVTILGGLNEFVVKFYGPQGTPYEGGVWKVRVDLPDKYPFKSPSIGFMNKIFHPNIDEASGTVCLDVINQTWTALYDLTNIFESFLPQLLAYPNPIDPLNGDAAAMYLHRPEEYKQKIKEYIQKYATEEALKEQEEGTGDSSSESSMSDFSEDEAQDMEL
# modifications: single catalytic cysteine labelled with TDMA 1 (thioacrylonitrile)
# notes: also called UBE2H-=CN
# B2: UBE2H thiomethyl acrylate probe (enzyme)
# chain: B1 chain
# modifications: single catalytic cysteine labelled with TDMA 2 (thiomethyl acrylate)
# notes: also called UBE2H-VME
# B3: UBE2L6*-=CN (enzyme)
# chain: MGSSHHHHHHSSGLEVLFQGPGSMMASMRVVKELEDLQKKPPPYLRNLSSDDANVLVWHALLLPDQPPYHLKAFNLRISFPPEYPFKPPMIKFTTKIYHPNVDENGQICLPIISSENWKPSTKTSQVLEALNVLVNRPNIREPLRMDLADLLTQNPELFRKNAEEFTLRFGVDRPS
# modifications: catalytic cysteine labelled with TDMA 1: thioacrylonitrile warhead
# B4: UBE2L6**-=CN (enzyme)
# chain: B3 chain with S114A
# modifications: catalytic cysteine labelled with TDMA 1: thioacrylonitrile warhead
# B5: UBE2L3**-=CN (enzyme)
# chain: MGSSHHHHHHSSGLEVLFQGPGSMAASRRLMKELEEIRKSGMKNFRNIQVDEANLLTWQGLIVPDNPPYDKGAFRIEINFPAEYPFKPPKITFKTKIYHPNIDEKGQVCLPVIAAENWKPATKTDQVIQSLIALVNDPQPEHPLRADLAEEYSKDRKKFSKNAEEFTKKYGEKRPVD
# modifications: catalytic cysteine labelled with TDMA 1: thioacrylonitrile warhead
# notes: also called UBE2L3** thioacrylonitrile probe
# B6: UBE2N-=CN (His-tagged UBE2N labelled with (E)-3-tosylacrylonitrile 1; thioacrylonitrile probe) (enzyme)
# chain: MGSSHHHHHHSSGLEVLFQGPGSAGLPRRIIKETQRLLAEPVPGIKAEPDESNARYFHVVIAGPQDSPFEGGTFKLELFLPEEYPMAAPKVRFMTKIYHPNVDKLGRICLDILKDKWSPALQIRTVLLSIQALLSAPNPDDPLANDVAEQWKTNEAQAIETARAWTRLYAMNNI
# modifications: cysteine labelled with TDMA 1: thioacrylonitrile (activated vinylsulfide) warhead
# notes: E2-based activity-based probe; forms a covalent bisthioether with the catalytic cysteine of the E1; also called Ubc13-=CN
# B7: UBE2N-VME (His-tagged UBE2N labelled with (E)-methyl 3-tosylacrylate 2; thiomethyl acrylate probe) (enzyme)
# chain: B6 chain
# modifications: cysteine labelled with TDMA 2: thiomethyl acrylate warhead
# notes: also called Ubc13-VME
# Assays:
# [1] = target: T1, endogenous UBA1 in HEK293 protein …; experiment: probe (25 uM) in HEK293 extract (125 ug), 3 h at 30 C, western blot
# Experimental: Labelling was quenched by the addition of 1 part 4×LDS loading buffer (Life Technologies) supplemented with 715 mM 2-mercaptoethanol (BME) to 3 parts probe-treated protein extract. Proteins were resolved by SDS-PAGE (10%) and transferred to nitrocellulose membrane (20 V for 40-60 min) by semi-dry transfer using a Novex Semi-dry device (Life Technologies). Membranes were blocked by incubation with 5% milk powder in phosphate buffered saline+0.1% Tween 20 (PBST) for 1 h. His-tagged species were probed with 1:10000 anti-His primary antibody (Clontech) in PBST+5% milk powder for 30 min at room temperature. Detection was carried out by incubation with 1:2500 anti-mouse-HRP conjugated antibody (Cell Signalling Technologies) in PBST+5% milk powder for 1 h at room temperature. ECL Prime substrate (GE Life Sciences) was used for visualization in accordance with the manufacturers protocol. Probing for UBA1 was carried out with anti-UBA1 primary antibody (Sigma E3152) and incubated for 1 h at room temperature. Detection was carried out by incubation with 1:15000 anti-mouse-HRP conjugated antibody (Cell Signalling Technologies) in PBST+5% milk powder for 1 h at room temperature.
# We next tested whether E2 probes could label endogenous proteins in a complex proteome. We prepared additional thioacrylonitrile and thiomethyl acrylate probes built on UBE2D1, UBE2D2, UBE2D3 and UBE2H. […] UBE2H was chosen as it only has a single catalytic cysteine. Human embryonic kidney cell (HEK293) extracts (125 μg) were incubated with empirically determined probe concentrations (5-25 μM).
# [2] = target: T2, UBA7 (ISG15 E1; His-tagged human UBA7); experiment: covalent activity-based labelling, SDS-PAGE (FIG. 3E)
# Experimental: (§1) E2 probes (14 μM) were mixed with E1 enzyme (3.5 μM) and diluted 10× reaction buffer (500 mM Na_2HPO_4 pH 8) or 10×Ub-ATP buffer (500 mM Na_2HPO_4 pH 8, 20 μM ubiquitin, 20 mM ATP) to a final volume of 15-50 μL. Reactions were incubated at 30° C. and 15 μL aliquots were taken at 1 and 5 h time points which were quenched with 5 μL of reducing SDS-gel loading buffer (NuPAGE LDS loading buffer (4×), 715 mM 2-mercaptoethanol). The quenched reaction solutions were boiled for 5 minute at 100° C. and then 4 μL was analysed by SDS-PAGE (NuPAGE Bis-Tris, 4-12%).
# [3] = target: T3, human Ub E1 activating enzyme UBA1 …; experiment: covalent activity-based labelling, SDS-PAGE (FIG. 3B)
# Experimental: as §1
# [4] = target: T3, human Ub E1 activating enzyme UBA1 …; experiment: covalent activity-based labelling, UBA1 3.5 uM with 4 eq. of probe, 30 C, reducing SDS-PAGE
# Experimental: as §1
# [5] = target: T3, human Ub E1 activating enzyme UBA1 …; experiment: covalent activity-based labelling of UBA1, reducing SDS-PAGE
# Experimental: as §1
binder,measurement,setting,value
B1,binding result,[1],binds
B2,binding result,[1],binds
B3,binding result,[2],binds
B4,binding result,[2],binds
B5,binding result,[3],binds
B6,binding result,[4],binds
same,binding result,[1],binds
B7,binding result,[5],binds
same,binding result,[1],binds
